Results taken from patent US20190144549A1 (TILOS THERAPEUTICS, published 2019).
Numbering of substitutions follows the chain as printed. Values belong to the binder of their own block, whether it stands above or below them.

Experiments:
[1] = biological target: T1, human LAP-TGFβ2 on HT1080 cells (human, UniProt P61812 21-414); assay: summary table; binding to human TGFβ2
T1 construct: also called human TGFβ2
T1 sequence: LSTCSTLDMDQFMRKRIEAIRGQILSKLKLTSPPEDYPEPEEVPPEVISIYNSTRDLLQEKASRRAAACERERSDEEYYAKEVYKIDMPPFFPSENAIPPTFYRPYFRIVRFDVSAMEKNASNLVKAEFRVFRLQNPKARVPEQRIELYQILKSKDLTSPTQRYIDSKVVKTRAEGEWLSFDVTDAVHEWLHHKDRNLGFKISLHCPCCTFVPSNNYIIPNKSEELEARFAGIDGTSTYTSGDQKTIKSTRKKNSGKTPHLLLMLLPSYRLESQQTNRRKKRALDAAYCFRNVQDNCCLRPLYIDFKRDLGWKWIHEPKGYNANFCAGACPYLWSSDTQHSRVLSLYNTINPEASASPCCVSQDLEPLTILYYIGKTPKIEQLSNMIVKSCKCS
Method: (§1) Briefly, 4×10⁵ each of (a) HT1080 cells, (b) HT1080 cells overexpressing human LAP-TGFβ1, (c) HT1080 cells overexpressing human LAP-TGFβ2, (d) HT1080 cells overexpressing human LAP-TGFβ3, (e) HT1080 cells overexpressing murine LAP-TGFβ1, (f) P3U1 cells, (g) P3U1 cells overexpressing LAP-TGFβ1 and GARP, and (h) P3U1 cells overexpressing LAP-TGFβ1 and LRRC33 were cultured in 96-well plates. The plates were centrifuged for 5 min at 1,500 rpm, liquid was removed, and cells were resuspended with 200 μL FACS buffer. The plates were centrifuged again, diluted primary antibody was added to each well, and the plates were incubated on ice for 20 minutes, followed by centrifugation. The cells were resuspended in 200 μL FACS buffer, centrifuged again, and resuspended in 50 μL diluted secondary antibody (Alexa647-anti-Human IgG or APC-anti-Mouse IgG). The plates were incubated on ice for 20 minutes in the dark, washed twice with 200 μL FACS buffer, and cells from each well (in 200 μL FACS buffer) were read on the Attune NXT instrument.

[2] = biological target: T2, human LAP-TGFβ1 on transfected cells (human, UniProt P01137 30-390); assay: cell-based or functional assay
T2 sequence (P01137 other isoform, or with tags, fused parts or gaps): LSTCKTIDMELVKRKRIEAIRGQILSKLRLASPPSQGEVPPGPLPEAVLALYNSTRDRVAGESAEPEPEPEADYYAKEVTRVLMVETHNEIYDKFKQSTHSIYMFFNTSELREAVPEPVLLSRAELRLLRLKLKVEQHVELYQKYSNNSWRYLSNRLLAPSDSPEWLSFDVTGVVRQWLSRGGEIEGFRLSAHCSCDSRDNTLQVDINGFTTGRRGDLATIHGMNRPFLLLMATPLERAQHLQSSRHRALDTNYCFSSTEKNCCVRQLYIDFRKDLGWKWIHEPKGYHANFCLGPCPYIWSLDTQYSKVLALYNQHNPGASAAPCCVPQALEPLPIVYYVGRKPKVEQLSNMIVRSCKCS

[3] = biological target: T3, murine LAP-TGFβ1 on transfected cells (murine, UniProt P04202 30-390); assay: cell-based or functional assay
T3 sequence (P04202 30-390): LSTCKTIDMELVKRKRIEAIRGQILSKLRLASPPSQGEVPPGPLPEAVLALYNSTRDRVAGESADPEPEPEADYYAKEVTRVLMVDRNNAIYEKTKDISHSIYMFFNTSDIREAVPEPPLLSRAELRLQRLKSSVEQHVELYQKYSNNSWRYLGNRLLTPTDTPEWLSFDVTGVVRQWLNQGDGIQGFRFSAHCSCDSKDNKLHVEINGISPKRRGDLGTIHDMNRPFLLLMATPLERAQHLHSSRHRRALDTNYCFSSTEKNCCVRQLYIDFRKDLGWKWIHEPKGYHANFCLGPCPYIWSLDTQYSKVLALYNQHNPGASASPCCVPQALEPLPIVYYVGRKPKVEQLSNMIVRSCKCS

[4] = biological target: T4, human LAP-TGFβ3 on HT1080 cells (human, UniProt P10600 24-412); assay: summary table; binding to human TGFβ3
T4 construct: also called human TGFβ3
T4 sequence: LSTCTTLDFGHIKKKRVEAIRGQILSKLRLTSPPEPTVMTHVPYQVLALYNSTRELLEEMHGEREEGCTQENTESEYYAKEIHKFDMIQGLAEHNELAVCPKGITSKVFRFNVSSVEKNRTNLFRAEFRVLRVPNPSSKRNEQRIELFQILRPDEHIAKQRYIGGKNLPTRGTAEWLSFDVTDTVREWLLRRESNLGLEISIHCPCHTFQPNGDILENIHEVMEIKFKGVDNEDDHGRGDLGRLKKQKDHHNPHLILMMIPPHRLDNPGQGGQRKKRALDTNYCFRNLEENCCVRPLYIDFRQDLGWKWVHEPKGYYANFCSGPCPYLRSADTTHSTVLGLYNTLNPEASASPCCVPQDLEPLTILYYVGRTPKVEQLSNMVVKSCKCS
Method: as §1

[5] = biological target: T1, human LAP-TGFβ2 on HT1080 cells; assay: flow cytometry, HT1080 cells overexpressing human LAP-TGFβ2
Method: as §1

[6] = biological target: T5, LAP-only variant (human LAP without mature TGFβ1) on HT1080 cells (human, UniProt P01137 30-277); assay: flow cytometry, HT1080 cells overexpressing the LAP-only variant
T5 construct: Overexpressed on HT1080 cells; also called HT1080-emptyLAP; empty LAP
T5 sequence (P01137 30-277 limits assumed, change not shown): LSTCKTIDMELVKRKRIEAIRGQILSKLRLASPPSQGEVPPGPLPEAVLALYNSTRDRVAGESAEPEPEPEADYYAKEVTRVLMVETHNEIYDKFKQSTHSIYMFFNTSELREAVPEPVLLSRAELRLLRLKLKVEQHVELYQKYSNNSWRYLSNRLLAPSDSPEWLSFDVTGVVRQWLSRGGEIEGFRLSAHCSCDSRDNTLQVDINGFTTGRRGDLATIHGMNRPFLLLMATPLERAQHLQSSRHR
Method: as §1
(§2) Briefly, 4×10⁵ each of (a) HT1080 cells, (b) HT1080 cells overexpressing human LAP-TGFβ1, (c) HT1080 cells overexpressing LAP-TGFβ1 with K27C and Y75C mutations, (d) HT1080 cells overexpressing LAP-TGFβ1 with a Y74T mutation, and (e) HT1080 cells overexpressing the LAP-only variant were cultured in 96-well plates. […]

[7] = biological target: T6, mature TGFβ1 (free human TGFβ1, without LAP) (human, UniProt P01137 279-390); assay: inhibition of a TGFβ1 ELISA after pre-incubation with mature TGFβ1
T6 construct: also called free TGFβ1
T6 sequence (P01137 279-390 limits assumed): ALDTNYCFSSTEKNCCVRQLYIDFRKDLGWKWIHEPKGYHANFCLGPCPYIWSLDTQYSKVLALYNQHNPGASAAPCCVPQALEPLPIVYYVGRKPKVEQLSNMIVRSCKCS
Method: To determine whether anti-LAP antibodies 28G11_hIgG1, 22F9_hIgG1, 20E6_hIgG1, 17G8_hIgG1, and 24E3_hIgG1, bind to free human TGFβ1 (i.e., mature TGFβ1 that lacks LAP), the ability of the antibodies to inhibit an anti-TGFβ ELISA was evaluated. Briefly, mature TGFβ1 (1000 μg) was incubated with the indicated anti-LAP antibodies at 10 μg/mL, an isotype control antibody as a negative control or the anti-TGFβ antibody 1D11 as a positive control for 10 minutes on ice. Supernatants were assayed in a TGFβ1 ELISA (R&D Systems) according to the manufacturer instructions to measure free TGFβ1.

[8] = biological target: T7, human LAP-TGFβ1 with a Y74T mutation on HT1080 cells (human, UniProt P01137 30-390); assay: flow cytometry, HT1080 cells overexpressing the variant
T7 construct: also called HT1080-Y74T; Y74T (open) LAP-TGFβ1 variant
T7 sequence (P01137 other isoform, or with tags, fused parts or gaps Y74T Y74T): as the sequence (P01137 other isoform, or with tags, fused parts or gaps) above, with Y74T counted along it
Method: as §1, §2

[9] = biological target: T4, human LAP-TGFβ3 on HT1080 cells; assay: flow cytometry, HT1080 cells overexpressing human LAP-TGFβ3
Method: as §1

[10] = biological target: T8, recombinant human LAP-TGFβ1-Fc fusion protein (human, UniProt P01137 30-390); assay: bio-layer interferometry (ForteBio), single concentration
T8 construct: also called human TGFβ1 in absence of anchor protein (ForteBio); not shown: Fc part, linker and order of fusion not described
T8 sequence (P01137 other isoform, or with tags, fused parts or gaps limits assumed): as the sequence (P01137 other isoform, or with tags, fused parts or gaps) above
Text: The ability of the antibodies to bind in this assay provides definitive evidence that the antibodies bind to LAP-TGFβ1 in the absence of an anchor protein.

[11] = biological target: T2, human LAP-TGFβ1 on transfected cells; assay: summary table; binding to human TGFβ1 on transfected cells
[12] = biological target: T9, LAP (LAP-TGFβ1) expressed endogenously on murine cells (murine, UniProt P04202 30-390); assay: summary table; binding to GARP+ murine cells
T9 construct: Natural LAP-TGFβ1 on primary mouse cells, GARP+ or GARPneg; also called LAP on murine platelets, T cells, Tregs, B cells, tumour immune cells
T9 sequence (P04202 30-390): as the sequence (P04202 30-390) above

[13] = biological target: T3, murine LAP-TGFβ1 on transfected cells; assay: summary table; binding to murine TGFβ1 on transfected cells

binding result [5]: no binding | binding result [6]: no binding | binding result [7]: no binding (tested: 10 µg/mL) | binding result [8]: no binding | binding result [9]: no binding
B2: 28G11_hIgG1 (antibody, V domains shown)
VH: EVKLVESGGGLVQPGGSLSLSCAASGFTFTDYYMSWVRQPPGKALEWLGFIRNKPNGYTTEYSASVKGRFTISRDNSQSILYLQMNVLRAEDSATYYCARYTGGGYFDYWGQGTTLTVSS
VL: DIQMTQTTSSLSASLGDRLTISCRASQDISNYLNWYQQKPDGTVKLLIYYTSRLHSGVPSRFSGSGSGTDYSLTISNLEQADIATYFCQQGDTLPWTFGGGTKLEIK
notes: 28G11 in human IgG1 format, by its name

binding result [10]: no binding | binding result [11]: no binding
B3: 16B4 (antibody, V domains shown)
VH: QVTLKESGPGILQPSQTLSLTCSFSGFSLNTFGMGVGWIRQPSGKGLEWLAHIWWDDDKYYNPALKSRLTISKDTSKNQVFLKIANVDTADTATYYCARIYYYGSWGLYYFDYWGQGTTLTVSS
VL: B2 VL with L19V, A81E, D92N, W96P

The remaining lines, values behind:

B1: 28G11 (antibody, V domains shown)
VH: B2 VH
VL: B2 VL
notes: Mouse hybridoma antibody; Used biotinylated or dye-conjugated in cell assays; also called 28G11_(hyb); 28G11_hyb
binding result [1]: no binding | IC50 of inhibition of TGFβ1 activation, P3U1 cell assay [2]: 1.4 µg/mL | IC50 of inhibition of TGFβ1 activation, P3U1 cell assay [3]: 1 µg/mL | binding result [4]: no binding

B4: 7H4 (antibody, V domains shown)
VH: DVQLQESGPGLVKPSQSLSLTCSVTGYSITSGYYWNWIRQFPGNKLEWMGYISYDGTNNYNPSLKNRISITRDTSKHQFFLKLNSVTTEDTATYYCARSFYNNYFDFWGQGTTLTVSS
VL: DIQMTQSPSSLSASLGGKVTITCKASQDIDKYIAWYQHKPGKGPRLLIHYTSTLQPGIPSRFSGSGSGRDYSFNISNLEPEDIATYYCLQYDNLRTFGGGTKLEIK
binding result [12]: binds | binding result [13]: binds
